Literature values in patent US20120202218A1, “DETECTION METHOD AND DEVICE BASED ON NANOPARTICLE AGGREGATION” (MODPRO AB, priority 2008, published 2012).

Assays:
[1] = neutral pH
[2] = biological target: Fab57P; details: binding to Fab57P, literature

Substance	net charge [1]	Kd [2] [nM]
H2N-NAADLEKAIEALEKHLEAKGPCDAAQLEKQLEQAFEAFERAG-COOH (H-NAADLEKAIEALEKHLEAKGPCDAAQLEKQLEQAFEAFERAG-OH) [JR2EC]	−5	
H-CRGTGSYNRSSFESSSGLV-NH2 [C-pTMVP]		~1
